Assays:
Fyn [1] = assay: Fyn phosphorylation in HEK293 cells stably expressing ErbB4 and Fyn-V5 (Western blot); format: cell-based
Procedure: (§1) To determine whether NRG1-induced activation of ErbB4 leads to Fyn phosphorylation, NRG1 exposure of HEK293 cells stably expressing ErbB4 and Fyn-V5 were activated with 7.2 nM NRG1 (R&D Systems; Minneapolis, Minn.) for 10 minutes and lysed using RIPA buffer. […] There was no change in Fyn Tyr531 phosphorylation. […] Fyn is activated either by dephophorylation of Tyr531 with loss of the SH2 domain interaction, or through displacement of the SH2 domain by a second tyrosine phosphorylated binding partner allowing auto-phosphorylation on the Fyn activation loop residue Tyr420. Alternatively, Fyn can be phosphorylated on Tyr420 and activated directly by a second kinase. Thus, the NRG1-stimulated increase in Fyn Tyr420 phosphorylation may be through stimulation of Fyn auto-phosphorylation, through phosphorylation of Fyn by ErbB4, or through phosphorylation of Fyn by an ErbB4 activated tyrosine kinase other than Fyn.
These alternatives were distinguished by applying PP2 (25 nM; Calbiochem, San Diego, Calif.) a relatively selective Src-family kinase inhibitor, to inhibit Fyn while ErbB4 signaling was stimulated with NRG1. […] Fyn was phosphorylated at a low level on Tyr420 under basal conditions. […] After NRG1 stimulation, an increase in Fyn Tyr420 phosphorylation was seen, even under conditions in which PP2 was used to inhibit p59 Fyn autophosphorylation. […] Thus, ErbB4 or an ErbB4 activated tyrosine kinase may phosphorylate Fyn on Tyr420 in response to NRG1 stimulation and activate the kinase directly.

Fyn [2] = assay: Fyn kinase activity after NRG1 stimulation of cells; format: cell-based
Procedure: To test if the observed increase in Fyn Tyr420 phosphorylation was associated with enhanced catalytic activity, Fyn kinase activity was measured after NRG1 stimulation. Fyn kinase activity was increased within 5 minutes of NRG1 stimulation, reached maximum activity after 7 minutes, and returned to pre-stimulation levels within 15 minutes.

MAPK p44/42 = MAPK p44/42 activation in HEK293 cells stably expressing ErbB4 and Fyn-V5; format: cell-based; details: 7.2 nM NRG1 for 10 minutes
[3] = system: MAPK pathway (serum response element luciferase reporter); assay: SRE-luciferase reporter gene assay in CHO-K1 cells expressing ErbB4 or ErbB4 and Fyn; format: cell-based
Procedure: CHO-K1 cells expressing only ErbB4 were constructed, and subsequently a subclone co-expressing Fyn was identified. The parental ErbB4 expressing cell line and the subclone co-expressing ErbB4 and Fyn continued to express similar levels of ErbB4 as shown by Western blot. The cells also contained a reporter gene sensitive to MAPK pathway activation, the luciferase gene under the control of a promoter containing a serum response element (SRE). The cells were activated for 4 hours with 0-57.6 nM and the luciferase assay was performed using the Dual-Luciferase Reported assay system (Promega, Madison, Wis.) according to the manufacturer's instructions. Induction of the luciferase reporter gene by NRG1 was amplified two-fold (p<0.05) in cells co-expressing ErbB4 and Fyn as compared to cells expressing only ErbB4. No significant differences in baseline luciferase activity or in NRG1 EC50 (˜1 nM) were found between the two cell lines.

ErbB4 [4] = assay: ErbB4 tyrosine phosphorylation in HEK293 cells (Western blot); format: cell-based; details: HEK293 cells expressing ErbB4 and Fyn-V5, 7.2 nM NRG1 for 10 minutes
Procedure: as §1
Thus, NRG1-induced ErbB4 phosphorylation under conditions in which Fyn and related Src-family kinases were inhibited by PP2 (selective Src-family kinase inhibitor described above). […] This may result in the creation of additional SH2 domain docking sites, thus leading to further activation of Fyn as part of a positive feedback mechanism involving NRG1, ErbB4 and Src-family kinases.

Fyn/Src = Fyn/Src Tyr420 phosphorylation in differentiated BE(2)-M17 neuroblastoma cells; format: cell-based, human; details: stimulation for 10 minutes
Procedure: (§2) Studies were carried out to determine if NRG1 signaling, mediated by activation of Src-family kinases, results in changes in the phosphorylation state of regulatory tyrosine residues on NR2B. BE(2)-M 17 human neuroblastoma cells (ECACC No. 95011816) have a neuron-like appearance after differentiation for 72 hours in the presence of 10 μM retinoic acid (RA; Sigma, St. Louis, Mo.) (Hanada et al., Can. Res. 53: 4978-4986, 1993). […] As RA differentiation induces NR2B, but not NR2A, expression, it was expected that the functional NMDA receptor channels expressed in these cells comprised of NR1 and NR2B subunits. Stimulation of differentiated BE(2)-M17 cells with NRG1 for 10 minutes increased ErbB4 tyrosine phosphorylation (FIG. 2), increased Fyn/Src Tyr420 phosphorylation (indicative of increased Src-family kinase activity), and increased Pyk2 Tyr402 phosphorylation. Pyk2 Tyr402 is an auto-phosphorylation site involved in Src-family kinase recruitment (Dikic et al., Nature 383: 547-550, 1996). In addition, a coincident increase in NR2B Tyr1472 phosphorylation was also observed (FIG. 2). Thus, NRG1 signaling through ErbB4 modulates NR2B tyrosine phosphorylation in neuroblastoma cells.

ErbB4 [5] = target: T1, ErbB4 (Homo sapiens, UniProt Q15303); assay: ErbB4 tyrosine phosphorylation in differentiated BE(2)-M17 neuroblastoma cells; format: cell-based; details: stimulation for 10 minutes
T1 construct: host or cells: BE(2)-M17 neuroblastoma, retinoic-acid differentiated
Procedure: as §2

[6] = system: NMDA receptor NR2B subunit; assay: NR2B tyrosine phosphorylation in SK-N-BE(2)-M17 cells grown with retinoic acid; format: cell-based; details: immunoprecipitation, anti-phosphotyrosine Western blot
Procedure: To determine if D150838 modulates tyrosine phosphorylation of the NMDA receptor, SK-N-BE(2)-M17 cells were grown for 72 house in the presence of retinoic acid to induce expression of the NMDA receptor NR2B subunit. The cells were contacted with NRG1 or D150838, the NR2B subunit was immunoprecipitated, and the level of tyrosine phosphorylation was detected by Western blot analysis with an anti-phosphotyrosine antibody. […] Phosphorylation of tyrosine residue 1472 was detected after exposure to D150838.

Pyk2 = Pyk2 Tyr402 phosphorylation in differentiated BE(2)-M17 neuroblastoma cells; format: cell-based, human; details: stimulation for 10 minutes
Procedure: as §2

ErbB4 [7] = assay: ErbB4 tyrosine phosphorylation and kinase activity in CHO-K1 cells expressing ErbB4; format: cell-based
Procedure: The initial step of NRG1 signaling is activation of ErbB4 kinase activity and auto-phosphorylation on tyrosine residues. An increase in ErbB4 tyrosine phosphorylation and associated kinase activity was observed when CHO-K1 cells (ECACC Accession No. 85051005) expressing ErbB4 were exposed to NRG1 (recombinant human HRG-αEGF domain; R&D Systems, Minneapolis, Minn.) in serum free medium for 0-15 minutes. Following immunoprecipitation of ErbB4, kinase activity was measured using a peptide substrate. Maximum ErbB4 kinase activity was detected within 1 minute of NRG1 exposure but returned to the pre-stimulation level by 15 minutes.
Target sequence in this assay (Q15303 26-1308): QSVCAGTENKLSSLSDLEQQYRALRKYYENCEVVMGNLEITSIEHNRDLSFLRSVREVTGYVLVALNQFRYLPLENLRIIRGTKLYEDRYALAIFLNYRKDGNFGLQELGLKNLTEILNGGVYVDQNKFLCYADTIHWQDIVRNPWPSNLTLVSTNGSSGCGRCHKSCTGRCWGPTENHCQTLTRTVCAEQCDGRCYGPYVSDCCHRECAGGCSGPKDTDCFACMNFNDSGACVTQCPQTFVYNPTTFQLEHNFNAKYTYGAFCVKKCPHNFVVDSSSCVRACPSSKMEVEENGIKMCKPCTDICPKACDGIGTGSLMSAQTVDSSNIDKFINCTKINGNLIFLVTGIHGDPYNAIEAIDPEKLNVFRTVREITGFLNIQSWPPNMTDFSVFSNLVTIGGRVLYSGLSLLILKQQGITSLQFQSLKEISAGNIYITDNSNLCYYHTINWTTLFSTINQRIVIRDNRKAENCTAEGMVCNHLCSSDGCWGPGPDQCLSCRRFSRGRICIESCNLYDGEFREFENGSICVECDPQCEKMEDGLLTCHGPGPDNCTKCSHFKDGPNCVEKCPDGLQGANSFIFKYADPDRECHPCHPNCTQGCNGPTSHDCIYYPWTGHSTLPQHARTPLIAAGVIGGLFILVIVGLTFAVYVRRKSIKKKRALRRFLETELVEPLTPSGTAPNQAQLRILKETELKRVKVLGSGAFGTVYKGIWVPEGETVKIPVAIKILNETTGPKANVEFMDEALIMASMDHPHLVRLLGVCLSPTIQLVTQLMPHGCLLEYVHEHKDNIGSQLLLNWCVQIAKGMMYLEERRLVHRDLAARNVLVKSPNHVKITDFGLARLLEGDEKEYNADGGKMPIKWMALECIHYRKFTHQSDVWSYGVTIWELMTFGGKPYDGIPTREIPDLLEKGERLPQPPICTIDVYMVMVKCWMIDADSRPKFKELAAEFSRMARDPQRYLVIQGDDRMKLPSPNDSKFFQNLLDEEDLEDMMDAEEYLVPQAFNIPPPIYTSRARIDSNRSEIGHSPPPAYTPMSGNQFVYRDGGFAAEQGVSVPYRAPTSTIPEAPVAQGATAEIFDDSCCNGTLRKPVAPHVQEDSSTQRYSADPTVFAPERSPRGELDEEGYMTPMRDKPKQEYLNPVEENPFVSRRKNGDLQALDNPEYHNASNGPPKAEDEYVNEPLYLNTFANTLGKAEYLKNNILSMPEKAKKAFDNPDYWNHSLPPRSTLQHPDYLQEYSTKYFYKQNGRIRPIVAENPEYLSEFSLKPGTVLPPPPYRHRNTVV

NR2B = NR2B Tyr1472 phosphorylation in differentiated BE(2)-M17 neuroblastoma cells; format: cell-based, human; details: stimulation for 10 minutes
Procedure: as §2

Chain of Fyn (P06241 whole entry, species assumed, the tested form may be a part): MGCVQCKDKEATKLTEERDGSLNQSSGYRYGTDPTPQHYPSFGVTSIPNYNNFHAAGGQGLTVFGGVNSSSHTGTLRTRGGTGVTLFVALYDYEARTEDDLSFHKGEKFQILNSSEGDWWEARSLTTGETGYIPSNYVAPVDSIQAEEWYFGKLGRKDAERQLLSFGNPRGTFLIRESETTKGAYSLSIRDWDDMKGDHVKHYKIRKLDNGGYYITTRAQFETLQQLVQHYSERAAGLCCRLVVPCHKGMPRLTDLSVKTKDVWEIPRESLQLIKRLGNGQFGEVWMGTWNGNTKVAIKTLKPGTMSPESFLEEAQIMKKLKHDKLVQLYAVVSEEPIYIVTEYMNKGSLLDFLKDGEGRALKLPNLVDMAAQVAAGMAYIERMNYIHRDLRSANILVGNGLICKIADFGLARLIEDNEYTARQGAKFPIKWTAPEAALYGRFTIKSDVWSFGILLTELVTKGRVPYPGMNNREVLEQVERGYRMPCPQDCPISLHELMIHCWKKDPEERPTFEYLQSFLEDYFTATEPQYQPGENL
T1 sequence (Q15303 26-1308): as the sequence (Q15303 26-1308) above

B1: NRG1: recombinant human HRG-αEGF domain; R&D Systems; polypeptide growth factor Neuregulin 1 (protein)
chain: SHLVKCAEKEKTFCVNGGECFMVKDLSNPSRYLCKCQPGFTGARCTENVPMKVQNQEKAEELYQK
Fyn Tyr420 phosphorylation (Fyn [1]; 7.2 nM NRG1 for 10 minutes): phosphorylation of Fyn on Tyr420 | Fyn Tyr531 phosphorylation (Fyn [1]; 7.2 nM NRG1 for 10 minutes): no change | Fyn Tyr420 phosphorylation after NRG1 stimulation with PP2 present (Fyn [1]; PP2 used to inhibit Fyn autophosphorylation): increase | time of maximum Fyn kinase activity (Fyn [2]; after NRG1 stimulation): 7 min | time of return of Fyn kinase activity to pre-stimulation levels (Fyn [2]; after NRG1 stimulation): ≤ 15 min | time to increased Fyn kinase activity (Fyn [2]; after NRG1 stimulation): ≤ 5 min | Fyn kinase activity (Fyn [2]; cells co-expressing Fyn and catalytically inactive ErbB4 D843A mutant): No increase | MAPK p44/42 Thr202/Tyr204 phosphorylation (MAPK p44/42): increase | EC50 ([3]; 4 hours, 0-57.6 nM, no significant difference between the two cell lines, read-out: EC50, luciferase reporter induction): ~1 nM | amplification of luciferase reporter induction in cells co-expressing ErbB4 and Fyn compared to cells expressing only ErbB4 ([3]; p<0.05): two-fold | ErbB4 tyrosine phosphorylation (ErbB4 [4]): tyrosine phosphorylation of ErbB4 | Fyn/Src Tyr420 phosphorylation (Fyn/Src): increased | ErbB4 tyrosine phosphorylation (ErbB4 [5]): increased | tyrosine phosphorylation of the NR2B subunit [6]: induced tyrosine phosphorylation | Pyk2 Tyr402 phosphorylation (Pyk2): increased | time of return of ErbB4 kinase activity to pre-stimulation level (ErbB4 [7]; after NRG1 exposure): ≤ 15 min | time to maximum ErbB4 kinase activity (ErbB4 [7]; after NRG1 exposure): ≤ 1 min | ErbB4 tyrosine phosphorylation and associated kinase activity (ErbB4 [7]; serum free medium, 0-15 minutes): increase | NR2B Tyr1472 phosphorylation (NR2B): increase

From patent US20060029546A1, “Materials and methods for identifying anti-schizophrenic agents” (deCODE Genetics, Inc., priority 2004, published 2006)
